Assay results taken from the supplement of paper PMC9170038.

System: K4 kissing-loop RNA reporter
Experiment: apparent KD of K4 kissing-loop reporter; higher = weaker reporter binding
Conditions: Eterna round: R107
Procedure: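 RNA-MaP round R107: designed RNA switches with theophylline, tryptophan, arginine or FMN aptamers are transcribed on-chip within common flanks. They are titrated with a labelled K4 kissing-loop RNA reporter in RNA-MaP buffer (100 mM Tris pH 7.5, 80 mM KCl, 4 mM MgCl2), without ligand or with the indicated ligand. Median apparent KD per design.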

[1] = input ligand: theophylline 20 uM
[2] = input ligand: tryptophan 2.4 mM
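Also: bound reporter read as fluorescence of individual clusters on recovered sequencing chips by microscopy, with normalized cluster intensities fitted with a binding model.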

Sequence	apparent KD of K4 kissing-loop reporter (input ligand: FMN 200 uM)	apparent KD of K4 kissing-loop reporter (input ligand: arginine 13.2 mM)	apparent KD of K4 kissing-loop reporter (input ligand: none)	apparent KD of K4 kissing-loop reporter [1]	apparent KD of K4 kissing-loop reporter [2]
AUUUAAUUAACUGAUACCAGACUUAAUGUUUUGUAUAUUACUAGUGAUGUUAGUGAUUCUGUCCCUUGGCAGCAGUAUCUACUUA [JR_ExcTheophyB_Sub014]	140 nM	152 nM	152 nM	153 nM	117 nM
AUUUAAUUAACUGAUACCAGACUUUUUGUUUUGUAUAUUACUAGUGAUGUUAGUGUUUCUGUCCCUUGGCAGCAGUAUCUACUUA [JR_ExcTheophyB_Sub016]	197 nM	252 nM	225 nM	298 nM	157 nM
AUUUAUUCGUACUUUCAGUGAUGUUGAUAACGAGGACCGGUACGGCCGCCACUCGAUUUGGCGAUUUUGUAUUUUUUAUUCUAUA [JR_SSTryptoA_Sub010]	403 nM	474 nM	510 nM	415 nM	317 nM
AUUUUGGUUGAAGGAUAUUCUCCCAUCGACGCGAUAAGAUACUUUGGAAGGUUUGCAGUGAUGUUGGAAGAAGGUCAAAGUUGUA [theeternabot_exclusion_KL_FMN_B_22]	479 nM	382 nM	611 nM	689 nM	523 nM
CAAGGACGGCCGUAGGCAUACCGUCGAUUCAAGGAUAUCAAGAGAAUGAGAAGGUGAAGUUUAUACAGUGAUGUUGCUAUAGAGA [theeternabot_sameState_KL_FMN_A_6]	133 nM	122 nM	168 nM	195 nM	152 nM
CACGAUGAAUUCUCUAGGAGUGAUGUUUUUCGAGGACCGGUACGGCCGCCACUCGGACCAGGAACGUGGGAGCGGCGAAAAGACU [jbmullin]	665 nM	312 nM	930 nM	500 nM	343 nM
CACGAUGAAUUCUCUAGGAGUGAUGUUUUUCGAGGACCGGUACGGCCGCCACUCGGACCAGGAGCGUGGUAGCGGCGAAAAGACU [zpmullin]	769 nM	256 nM	545 nM	523 nM	484 nM
CAUACGCAUGGAGGAUAUGAGAUUUCUCAUAUUAUUUAUUAUUCUCAGUGAUGUUGGGAUUUAAACUCAGAAGGCCAUGUGUAUG [Ex FMN B 8]	252 nM	176 nM	175 nM	244 nM	199 nM
CAUAUAUACACUAACCCGUACGGUAGUAAGCGAGGACCGGUACGGCCGCCACUCGAUCGUUUCGUGUUAGCACCAGUGAUGUUGG [theeternabot_sameState_KL_Trp_A_3]	461 nM	399 nM	526 nM	431 nM	392 nM
CAUCUCAUGAAAUGAGAUGUCAUCAGUGAAGGAGCGCUAUUAGCAGCAGGUAGGUCGCACUGAAGCGGAGUGAUGUUCUGUAUGA [Arg A SS t3]	170 nM	220 nM	293 nM	214 nM	150 nM
CAUGCCAUGAUCCUCCUGGUAUCUCCUGAUACCAGCGUGCUGACACGCCCUUGGCAGCAGGAGUCGAGAGUGAUGUUGUCGAGAA [KL-SSTheo-A9 #analogue]	568 nM	174 nM	184 nM	373 nM	328 nM
CAUGGAGUGAUGCUCCAUGAUCGGGCUUGGCAGGAUAUGGGAUUUUCCAGAAGGGUCGAUCCCAGCGAGUGAUGUUCGCUGGUCU [Exclusion FMN A GF 26]	106 nM	121 nM	126 nM	151 nM	116 nM
CCAGAAUAAUGAAGAUGAUAAAUUACUGAAGGAGCGCAUAUAGUUGCAGGUAGGUCGCGGUGAAUAAGUAUAGUGAUGUUAUACC [SSArgA.Ad]	261 nM	209 nM	256 nM	260 nM	255 nM
CCAGCAAAGCUGGUCGCCAAACAACGGGCACGAGGACCGGUACGGCCGCCACUCGUGAGGACGAGUGAUGUUCGUUCACGGGCGA	815 nM	587 nM	1690 nM	602 nM	302 nM
CCAGCGGGCACGGCCGCCACUCUCUCGAGUGAUGUUUGCGGAGUCAGGCCGGCUCAGUACGUCACGAGGACCGGGUGCAAUUUAC [theeternabot_exclusion_KL_Trp_B_40]	986 nM	425 nM	829 nM	506 nM	460 nM
CCAGGACGAUGAGGAUGAUGAAUUACUGAAGGAGCGCAUAUGGUUGCAGGUAGGUCGCGGUGAACAAGUAUAGUGAUGUUAUGCC [SSArgA.V]	704 nM	424 nM	693 nM	519 nM	631 nM
CCAGGAUGAUGAGGAUGAUAAAUUACUGAAGGAGCGCAUAUGGUUGCAGGUAGGUCGCGGUGAAUAAGUAUAGUGAUGUUAUGCC [SSArgA.Y]	970 nM	612 nM	561 nM	801 nM	761 nM
CCAUCGCUAUUCGAUACCAGUCAGGAGGUCUUUGGCCUCCUAAUGGAGUGAUGUUCCUUAGACCCUUGGCAGCGAAUAGUGAUGG [Theophylline B K4 14]	630 nM	171 nM	405 nM	448 nM	249 nM
CCAUUCAGUUACGAUACCAGUCUAAUAUAUUUGAUCAAAACCCUCGCCGAGUGAUGUUCGGACCCUUGGCAGCGUCUGGGACAGG [xxcetmullin]	481 nM	399 nM	421 nM	379 nM	344 nM
CCAUUCUUUUACGAUACCAGUCUAAUAUAUUUAAUCAAAACCCUCGCCGAGUGAUGUUCGGACCCUUGGCAGCGUCUGCGAGAGG [ettyxtkmullin]	606 nM	472 nM	758 nM	603 nM	495 nM
CCCGCGUCGUUAGUGAUGUUGACUUCUGAUACCAGUCGCAGGUAGGACCCUUGGCAGCAGCAGUUUUGUUAUAUGUAGGAUCCAG [theeternabot_exclusion_KL_Theo_A_36]	727 nM	201 nM	717 nM	445 nM	490 nM
CCCGUACCAGUGAUGUUGGUAUGGUCUGAUACCAGUCUGUAGUCGGGCCCUUGGCAGCAGACCCUUGCCAAGGUGACGACUCCGG [Qu]	128 nM	146 nM	126 nM	131 nM	132 nM

Sequence	apparent KD of K4 kissing-loop reporter (input ligand: FMN 200 uM)	apparent KD of K4 kissing-loop reporter (input ligand: arginine 13.2 mM)	apparent KD of K4 kissing-loop reporter (input ligand: none)	apparent KD of K4 kissing-loop reporter [1]	apparent KD of K4 kissing-loop reporter [2]
CCCGUGGGUUUGAGAGGGCUUGUGGGAAGUAAGGAUAUUUAGGGAGAAAGAAGGUACUAUAGAAUAUAGUGAUGUUAUAUAUGGG [#06 K4 FMN A Same State]	238 nM	218 nM	232 nM	126 nM	170 nM
CCCUCACGAGUGAUGUUCGUAGGGUACAGUCAGGAUAUCAUGCGGUUGAGAAGGGACAGGAAGGGCGGCGGCGGGUUGCUCACCG [Atera]	154 nM	163 nM	192 nM	204 nM	150 nM
CCGGGCGGCCGAAGGAGCGGGCGGACCCGAGUGAUGUUCGGGUGGACCGUGAGGUCCGGUGCCCAGGUAGGUCGCGGUUCCGUCC [#2 Same State - Arginine B Attempt #6 (HarryS)]	200 nM	101 nM	159 nM	97.5 nM	121 nM
CCGGUUCCAACGCUGACUGAAGAACAUGAUACCAGUCGAGGACUCGACCCUUGGCAGCAUUAUAGAGUGAUGUUCGCUUCAGAAA [theeternabot_sameState_KL_Theo_A_15]	157 nM	140 nM	189 nM	367 nM	117 nM
CCGUGGAGUGAUGUUCCACGUAAUACGGAUACCAGCUUUGCCAAAGGCCCUUGGCAGCCGCACGUUGCAGUGAUGUUGUGGCGCG [Same State Theophylline A G8]	191 nM	143 nM	183 nM	162 nM	150 nM
CCGUGGCCGACGGCCGCCACUCUUACCAUCCAGCGGAGUGAUGUUCCGCCCGAGUGAUGUUCGGAGAGGACCGGGUCUGUUGUAA [Exclusion Tryptophan B GF30]	117 nM	103 nM	108 nM	89.1 nM	98.9 nM
CCUAUCUCAUACGAUACCAGUCAAUGAUCUUUGAUCAAUGCCAUCACCGAGUGAUGUUCGGACCCUUGGCAGCGUAUGAGAUGGG [whbob_Ex_Theo_B_sa104]	276 nM	203 nM	255 nM	376 nM	246 nM
CCUAUCUCAUACGAUACCAGUGAAUUUAUGUUUAUUAGCAGUGAUGUUGCGUUCCAAGUACACCCUUGGCAGCGUAUGGGAUAGG [Ex Theophylline B K4 24]	139 nM	168 nM	147 nM	143 nM	113 nM
CCUAUCUCAUACGAUACCAGUGAUUAACCAGUGAUGUUGGAAUAACCAAGGAAUAUUUUUCACCCUUGGCAGCGUAUGGGAUAGG [Ex Theophylline B K4 26]	78 nM	38 nM	59.1 nM	61.9 nM	49.6 nM
CCUAUCUGUUACGAUACCAGUCAAUGAUAUUUUAUCAAUGCCCUCACCGAGUGAUGUUCGGACCCUUGGCAGCGUCUGGGAUAGG [tyygpimullin]	160 nM	148 nM	171 nM	153 nM	151 nM
CCUGCCAGCACGGCCGCCACUUCUAUUGUAUCUAUUUUUGUAAUCCUUUAGGAGUGAUGUUUUUAAAGGACCGGGUGAUGGCUGA [theeternabot_exclusion_KL_Trp_B_14]	446 nM	248 nM	398 nM	356 nM	410 nM
CCUGGCGAGGUAACGUGGAUAUCUCGUCGCAAGGAUAUCUGGAAACAGAGAAGGUGCUACAUUACCGGCAGUGAUGUUGCUGACC	841 nM	336 nM	426 nM	455 nM	274 nM
CCUUCCCUUGAUAGUGAUGUUAUCAAGGACAAGGAUAUCAUCUCAAUGAGAAGGUGUCCUUGAUAACAUGGAGGUCUGAAACAGA [Omei KL FMN A Exc C v2]	279 nM	125 nM	132 nM	128 nM	139 nM
CCUUCCGACACGGCCGCCACUAAUUUCAUCAGAUUGCCCGGAUUUCCAAGAUAGUGAUGUUGUACUAGGACCGGGUGUCAGGUCG [theeternabot_exclusion_KL_Trp_B_16]	874 nM	680 nM	816 nM	760 nM	775 nM
CGAGUCCUGAGGAGUGAUGUUCCUCGGCCACGAGGACCGGUACGGCCGCCACUCGUUACUCGAGCUUAGUAGCUAGCACUAAGCC [Zaussora]	189 nM	164 nM	179 nM	186 nM	109 nM
CGAGUGAUGUUCGAAGAGUUGUUAAGCGAUACCAGCCAGGAAACUGGCCCUUGGCAGCGUAAUAAAUAAAUAAAUAAAUGAUCAC [Theophylline A Exclusion; Euphoria Solution]	425 nM	438 nM	472 nM	430 nM	372 nM
CGAUGGAUGGCAGGAUAUAGACAUUGAGUGAUGUUCGAUGAUUAUCCAUAUUCCCGUCACCUAAGACUAGAAGGGCCAUCCAUCG	554 nM	167 nM	205 nM	191 nM	198 nM
CGAUGUUCCUGGGAUACCAGUCGGAGUCUCAGAGCUCGGAGUGAUGUUCUGGGAUGUUUCGGCCCUUGGCAGCUCUGGGACUCCC [#2 Exclusion - Theophylline B Attempt #23 (HarryS)]	843 nM	615 nM	818 nM	682 nM	722 nM
CGAUUUGCUUCAGCCUUAGUGAUGUUAAGGCGAGGACCGGUACGGCCGCCACUCGUAGGUUAUGUGCACGGCGGCGCUAAGGGCC [theeternabot_exclusion_KL_Trp_A_36]	109 nM	107 nM	111 nM	120 nM	108 nM
CGCACACUUGUUGAUACCAGAAGCCGACCGGAAACAUCAUUGAGUGAUGUUCAAGCUGUUUUCCCUUGGCAGCAAACGAGUGGUC [theeternabot_exclusion_KL_Theo_B_22]	150 nM	120 nM	138 nM	132 nM	138 nM
CGCAGUGAUGUUGCGAGUAGCUACAGGGAAGGAGCGCUUUAGUAAGCAGGUAGGUCGCCCACGCAGUGAUGUUGCGUCAUAGGGU [Exclusion Arginine A GF 19]	118 nM	106 nM	108 nM	109 nM	88.4 nM
